The series deals with the molecule itself. Put plainly: western blot after SDS-PAGE under reducing and non-reducing conditions; isolated specific granules of human neutrophils, blotted with anti-OLFM4 clone #49; 12% polyacrylamide gels. (Immunoblotting shows a protein as a band on a membrane.)

B1: Olfactomedin 4 (OLFM4) (natural protein)
chain: not shown
modifications: highly glycosylated (sites not given); intermolecular disulphide bonds (cysteines not given)
notes: Olfactomedin 4, human, native protein from specific granules of neutrophils; 72 kD under reducing conditions; Multimer of unstated size; also called hGC-1; GW112
For the protein B1, the binding result is “binds”.

The values are drawn from paper PMC4687705, “Plasma levels of OLFM4 in normals and patients with gastrointestinal cancer” (Journal of Cellular and Molecular Medicine, 2015).
